B1: Parechovirus C (nucleic acid)
DNA: CGGTCATCCCCCTTTCCCCACAGCCGGTGTGGGTTCTAATCGGCTCCTACTAAACACCTAAGCATCACTGCGCCTCTATCTCTCCTATCCACAGGTCTAAGACGCTTGGAATAAGACATGTGGGTGCAATAGGAAGATTAGCTAGTCCAATCTCTCCTTCCAGCTACGCTTCTCCCTTCGATGAGCGTAGGGGGGGCCCCCACCTCCCTCATCTCTGGATAGGGCTCTTGCTACGGGGCTTTCCCGTCTGGACCAGCAGGCCCACTGGTGCGCTTCCATTCAAGTTTAGTGTGCATTACTGTCTGAAATATTGCTTTGCTAGGATCTAGTGTAGCGACCTGCATATTGCCAGCGGACTTCCCCACATGGTAACATGTGCCTCTGGGCCCAAAAGGCATGTCTTTGACCGTATGCAGTACAACCCCAGTATAGGTCCTTTCTATGGCAGTATGGATCTCAGTGATGAGTCTATACAGAATATGGAAGTGGTTCGGATATGTCAGCCCGAAGGATGCCCAGAAGGTACCCGCAGATAACCTTAAGAGACTGTGGATCTGATCTGGGGCCCACCACCTTCGGGTGGGTAGAAGCTAACCATGCCTTGGGTTAAAAAACGTCTAAGGGCTGACCAGACCCGGGGGATCCGGGTTTTCCCTATCTTGACCTACTCTAATC
modifications: Parechovirus C
B2: Parechovirus A3 (nucleic acid, listed as Parechovirus sp.)
DNA: AGAGTCCTTTTCCCAGCCAGAGGTGGCTGGTTAAATAATACCTACTGTAACAAAACATCTAAGATGTAACAACCACACACCTGGTCTCCACTGGCCGAAGGCAACTAGCAATAAGGCAGGTGGGTTCAGACGCTTAAAGTGTGTTGTACATATTCTTTTCTAACCTGTGTTTTACACAGGGTGGCAGATGGCGTGCCATAACTCTAACAGTGAGATACCACGCTTGTGGACCTTATGCTCACACAGCCATCCTCTAGTAAGTTTGTAAGATGTCTGATGACGTGTGGGAACCTGTTGGAGATAACAGTTTGCTGCAAAGCATCCCACTGCCAGCGGATCTACATCTGGTAACAGATGCCTCTGGGGCCAAAAGCCAAGGTTTAACAGACCCTTTGGGATTGGTTCAAACCTGAACTGTTATGGAAGACATTTAGTACCTGCTGATTTGGTAGTAATGCAAACACTAGTTGTAAGGCCCACGAAGGATGCCCAGAAGGTACCCGTAGGTAACAAGTGGCACTATGGATCTGATCTGGGGCCAGCTACCTCTATCTTGGTGAGTTGGTTAAAAAACGTCTAGTGGGCCAAACCCAGGGGGGATCCTGGTTTCTTTTTAATTTAAGTAATCACT
B3: Parechovirus A17 (nucleic acid, listed as Parechovirus sp.)
DNA: CTCTATTAGTGAGATACCACGCTTGTGGACCTTATGCTCACACAGCCATCCTCTAGTAAGTTTGTAAGACGTCTGGTGACGTGTGGGAACTTGTGGGAATCAATATTTTGCTTTAAAGCATCCATTAGCCAGCGGATAAAACACCTGGTAACAGGTGCCTCTGGGGCCAAAAGCCAAGGTTTAACAGACCCTAGTGGATTGGTTTCAAAACCTGAAATATTGTGGAACACACTCAGTACCTACTGATCTGGTAGTAATGCAAGCACTAGTTGTAAGGCCCACGAAGGATGCCCAGAAGGTACCTGTAGGGAACAAGAGACACTATAGATCTGATCTGGGGCTGGCTACCTCTATTTTGGTGAGTCAGTTAAAAAACGTCTAGTGGGCCAAACCCAGGGGGGACCCTGGTTTCCATTTATTTTACAAAGGCACT
B4: Parechovirus A2 (nucleic acid, listed as Parechovirus sp.)
DNA: GCCGTCGGGCCTTACACCCCGACTTGCTGAGTTTCTCTAGGAGAGTCCCTTTCCCAGCCAGAGGTGGCTGGTCAAACAATACCAAACGTAACTAAACATCTAAGATAACATAGCCCTATGCCTGGTCTCCACCAGTTGAAGGCATCTTGCAATAAAATGGGTGGATTAAGACGCTTAAAGCATGGAGTCAATTATCTTTTCTAACTAGTGATCTTCACTGGGTGGCAGATGGCGTGCCATAACTCTATTAGTGGGATACCACGCTCGTGGATCTTATGCCCACACAGCCATCCTCTAGTAAGTTTGCAAGGTGTCTGATGAGGCGTGGGAACTTATTGGAAATAATTACTTGCTGCGAAGCATCCTACTGCCAGCGGATCAACACCTGGTAACAGGTGCCCCTGGGGCCAAAAGCCACGGTTTAACAGACCCTTTAGGATTGGTTAAAACCTGAGTAATTATGGAAGATACTTAGTACCTACCAACTTGGTAACAGTGCAAACACTAGTTGTAAGGCCCACGAAGGATGCCCAGAAGGTACCCGCAGGTAACAAGAGACACTGTGGATCTGATCTGGGGCCACCTACCTCTATCCTGGTGAGGTGGTTAAAAAACGTCTAGTGGGCCAAACCCAGGGGGGATCCCTGGTTTCCTTATTTTAGTGTAAATGTCATT
B5: Oscivirus (nucleic acid, listed as Oscivirus sp.)
DNA: CCTCGGTCCCTCTTTCCGTCGCCGCCCACGACGTTAAATGCGGTGTTGTGGTGCTTAGGTGCCACACCACTGCTATTTGGGTCCCCCTTTCCCCTATATATGTTTGTTTGTTTATTTCAATTTCTTGAGGATTGGCACCTCCTTATGCCAAATCTAAATCGTGGAGGATCCCAGGCTTTCTGGTCTTTAACAGAACTCCACGTCCAGGTCATAGAAACTGGTTGGTAGGCTGCCTGAGTAGTCCATTTGCTAGTAGTCCCTTGTGAACAGGGTGGCTCCCGTTTACTGCTGGTATTCCCGGTGTAGGTCGCCATGGTGGTAACACCATCCTGCATTGTGTGTGAACCAGTACCGCAAGGATAGCAAGGTATGAACACTTGTGGACGAAATGGTAAGTGATCAATTCACTTTCATGGCCGGAAGGTCACGTGGCAATCATGCCACCCAGGTACCCTCCTCTGGGAGGATCTGAGGGTGGGCTAAGCAGACCCTGCCATGTGGCTGAACTTTTCCCTTATTGTTTTACTTTGTAACATTTATAGTTGTGTTAGTGATTTGTGTGTTGTGCCCTTGTGAGCTATATCCAGTATAAGTTCGCAGCTAGAAGTTAATCCTTCGACATCGGCTGTATTGGAA
B6: Ljungan Virus 87-012 (nucleic acid)
DNA: CTCATTGCCCACACCTGGTTGGTTCCCAGGTTCATACAATAACCATCAATAAACTTTTAACATCTAAGATAGTATTATCCCATACTAGACTGGACGAAGCCGCTTGGAATAAGTCTAGTCTTATCTTGTATGTGTCCTGCACTGAACTTGTTTCTGTCTCTGGAGTGCTCTACACTTCAGTAGGGGCTGTACCCGGGCGGTCCCACTCTTCACAGGAATCTGCACAGGTGGCTTTCACCTCTGGACAGTGCATTCCACACCCGCTCCACGGTAGAAGATGATGTGTGTCTTTGCTTGTGAAAAGCTTGTGAAAATCGTGTGTAGGCGTAGCGGCTACTTGAGTGCCAGCGGATTACCCCTAGTGGTAACACTAGCCTCTGGGCCCAAAAGGCATGTCATTTGACCACTCAGGTACACAACCCCAGTGATGCACACGCTTAGTAATGGCTTAGTAACAAACATTGATTGATCATTTGAAAGCTGTTAGGAGGTTTAGGTATGACGGGCTGAAGGATGCCCTGAAGGTACCCATAGGTAACCTTAAGCGACTATGGATCTGATCAGGGGCCCACCATGTAACACATGGGTAGAAGTCTTCGGACCTTGGGTTAAAAAACGTCTAGGCCCGCCCCCCACAGGGATGTGGGGTTTCCCTTATAACCCCAATATTGTATA
B7: Potamipivirus A (nucleic acid)
DNA: CACATGGAAAGCTTTTCGCTTCCATGTTTACGCACACACTCTCTTTGACACCCTGTTGTATGGTGTTAAACTACAACATTTGTCTGTCTATAATCGTTTATTTTGTTTACCCTATATGTACCCAAGTATTTGATTGCTTGACTCACATAAGCATCGGTAACCCATACTGTTTTATGAGCTACTACCTCTGCTGTCTACATACATTTTATATGAATGGTTTGAGCTCTGCCTCAGGATCAAACATGGTAACATGTTCCTTTGGTCAGTTAGAATCTTATTGTATAATCTAAGGTGTCTATTAGTACGTAGAAAGTTGTAACACATATGGGGCCTGATAGCCGCTATCTCTGATGGATGTAAGGTAACCTTCTTTAGGTCTGATACATTCTGCACAGGATCCAATTTTCGGTGCCCTGTACGAGTGCACTCTTATGCACGAGGACGAGATATGCTACAACCCACTGCAAATTTAAACCCAAACTTTAACA
modifications: Potamipivirus A
B8: Parechovirus A8 (nucleic acid, listed as Parechovirus sp.)
DNA: GGGCCTTATACCCCGACTTGCTGAGTTTCTCTAGGAGAGTCCCTTTCCCAGCCCTGAGGCGGCTGGATAATAAAGGCCTCACATGTAACAAACATCTAAGACAAAATAATTTGCCTTGCACCTGGTCCCCACTAGTTGAAGGCATCTAGCAATAAGATGAGTGGAACAAGGACGCTTAAAGTGCAATGATAGTTATCTTTTCTAACCCACTATTTATAGTGGGGTGGTGGATGGCGCACCATAATTCTAATAGTGAGATACCACGCTTGTGGACCTTATGCTCACACAGCCATCCTCTAGTAAGTTTGTGAGACGTCTGGTGACGTGTGGGAACTTACTGGAAACAATGCTTTGCCGTAAGGCTTTCATTAGCCAGCGGACCACCACCTGGTAACAGGTGCCTCTGGGGCCAAAAGCCAAGGTTTAATAGACCCTAATGGAATGGTTCAAACCTGGAGCATTGTGGAAAGTACTTAGTACCTGCTGATCTGGTAGTAATGCAAACACTAGTTGTACGGCCCACGAAGGATGCCCAGAAGGTACCCGTAGGTAACAAGTGACACTATGGATCTGATCTGGGGCCAACTACCTCTATCTTGGTGAGTTGGTTAAAAAACGTCTAGTGGGCCAAACCCAGGGGGGATCCCTGGTTTCCTTTTATTTTACTTTGTCAAT
B9: Potamipivirus B (nucleic acid)
DNA: TTTCAACGTCGTGGCTGACGTTAAAAAGCCACAATTCCACTTACCTTTTACCTTTTATGTTTAATGTTTGTTAGTTTTGTGATCTTTAACAAATAGATCTAAATAATTTGTTGGTAACCAATCTCGGATGTTTCGGCTGCATTGTAGTTTATTTATTTCATTTTAGTTGTAGGTGGCCACTACGTCCTGGAATCATACATGGTAACATGTACCTCGGCGGTTATCCACTATTACGCTAATCTAAGAATATTTAAATGAAAATGTAAGTGTTACGGCTGACTTTGGGCCTGATAGTTAAATGCTCGCACTGACAGATAGTACCCTCCTTTAGGATCGATTCTGTTACATGGGATCCATTTTGGTGCCCCACTGATTCAACCTCTTTGTTGAAAAAGAGTTAGCATACTACAAATTTTCCAAACAAAAACCCTTTTTAATGACTACAACTTATGATTTTATGAATTTTACTGCTCTTGAAAAAGATATTTTGACATTGATCGCTGTACTGTTTCAGACATTCATTGCATCCATTTTTGTTGGCTACTCCTCACAAACTCAAAACTTTTCCACACGAGAAACCTTGTTTATTGAATTTTGCCTTTATATTTTGGAACTTGTTGTTGGATTTATTGTTTGCTTAATTATTGACCTCACACCTGTTTTAAACACTACAAT
modifications: Potamipivirus B

tested on: HEK293 cells; assay type: cell-based, human; conditions: luminescence from secreted Gluc in supernatant 24 hours after transfection of HEK293 cells; circular RNA encoding Gluc with the named IRES (UTR truncated to 675 nt)

First: B1
Second: B2
The Expression of the first is lower: 1.24E+06 for the first, 3.58E+06 for the second.

First: B3
Second: B4
The Expression of the first is lower: 1.20E+06 for the first, 1.80E+07 for the second.

First: B5
Second: B6
The Expression of the first is higher: 4.55E+07 for the first, 2.00E+06 for the second.

First: B7
Second: B8
The Expression of the first is lower: 8.43E+05 for the first, 1.61E+07 for the second.

With B9 the Expression was 7.20E+05.
